# Laboratory results reported in patent publication US10716830B2, “ERBB4 activator screening assay” (Children's Hospital Los Angeles, priority 2011, dated 2020).
# Experiments:
# [1] = system: Akt; assay: Akt phosphorylation in whole cell lysates by western blot; type: cell-based, mouse; settings: YAMC-B4 cells; NRG4 100 ng/ml, 10 min
# Excerpt: (§1) Cell lysates were extracted in modified RIPA buffer as previously described (Frey, M. R., Dise, R. S., Edelblum, K. L., and Polk, D. B. (2006) Embo J 25, 5683-5692), cleared by centrifugation, and boiled in Laemmli sample buffer. Samples were separated on SDS-polyacrylamide gels (6-10% as appropriate), blotted on PVDF membranes, and subjected to quantitative immunoblot using the Li-Cor Odyssey infrared detection system. Equal loading was monitored by immunoblots for actin and at least one additional protein.
# (§2) To identify signaling pathways which could be involved in NRG4-stimulated cell survival, we exposed YAMC-B4 cells to NRG4 or EGF and prepared whole cell lysates for western blot analysis. […] Furthermore, COX-2 expression, which is induced by either HRG-1β or EGF after 6 h exposure, and is required for cell survival induced by ErbB4-EGFR dimers (Frey, M. R., Hilliard, V. C., Mullane, M. T., and Polk, D. B. (2010) Laboratory Investigation 90, 1415-1424), was not induced by NRG4. Thus, NRG4 promotes cell survival through pathways at least partly distinct from those activated by other ligands.
# [2] = system: Akt; assay: Akt phosphorylation in colon epithelium of injected mice; type: in vivo, mouse; settings: mice injected with NRG4, with or without TNF plus IFN-γ; 24 h
# Description: (§3) All animal use was approved and monitored by the Children's Hospital Los Angeles Institutional Animal Care and Use Committee. […] Cytokines, growth factors, and inhibitors were given by intraperitoneal injection. 24 h after injections, mice were sacrificed and colons collected either for fixation and embedding or for epithelial lysates. For the latter, colons were incubated in Cell Recovery Solution (BD Biosciences, San Jose, Calif.) for 1 h at 4° C.; crypts were released by vigorous shaking and collected by centrifugation, similar to as previously described (Whitehead, R. H., and Robinson, P. S. (2009) American journal of physiology. Gastrointestinal and liver physiology 296, G455-460). Collected crypts were lysed and processed similar to cultured cells as below. For murine colitis, IL-10^−/− mice on C57Bl/6 background were maintained unchallenged until 32-36 weeks of age, at which point knockout mice but not wild-type animals have extensive inflammatory cytokine-driven colitis (Kuhn, R., Lohler, J., Rennick, D., Rajewsky, K., and Muller, W. (1993) Cell 75, 263-274).
# Tissues and cells were fixed with 4% paraformaldehyde (Electron Microscopy Sciences, Hatfield, Pa.). […] For immunofluorescence, slides were mounted with Vectashield medium containing DAPI (Vector Laboratories, Burlingame, Calif.). […]
# [3] = system: rat intestinal epithelial cells; assay: Cronobacter sakazakii-induced apoptosis in cultured intestinal epithelial cells; type: cell-based
# Excerpt: NRG4 inhibits CS-induced cell death.
# [4] = system: colon crypts; assay: Ki-67 proliferative index in colon in vivo; design: species or system mouse; settings: 24 h post-injection
# Description: (§4) Proliferative index in fixed colon specimens was assessed by immunohistochemical stain for Ki-67. In vitro, cells were exposed to vehicle or growth factors for 24 h, then labeled with 5-ethynyl-2-deoxyuridine (EdU) for 2 h and fixed. Nuclei were marked with DAPI, and incorporated EdU was detected using a Click-iT EdU kit (Invitrogen).
# (§5) Most ErbB ligands stimulate multiple cellular processes, including proliferation and migration, in colon epithelial cells (Frey, M. R., Golovin, A., and Polk, D. B. (2004) J Biol Chem 279, 44513-44521). To determine if NRG4 is similarly broad in its cellular effects, we subjected YAMC-B4 cells to proliferation assays in the presence of NRG4. […] In vivo, the number of Ki67-positive nuclei per crypt in PBS vs. NRG4-injected mice was not altered 24 h post-injection (FIG. 4B).
# [5] = system: COX-2; assay: COX-2 expression in YAMC-B4 cells; type: cell-based, mouse; settings: 6 h exposure
# Description: as §2
# [6] = system: colon epithelial cells; assay: Cytokine-induced colon epithelial apoptosis in vivo; design: species or system mouse; settings: C57Bl/6 mice, NRG4 100 μg/kg i.p., TNF 250 μg/kg plus IFN-γ 250 U/g, 24 h
# Description: as §3, with “For murine colitis, IL-10^−/− mice on C57Bl/6 background were maintained unchallenged until 32-36 weeks of age, at which point knockout mice but not wild-type animals have extensive inflammatory cytokine-driven colitis (Kuhn, R., Lohler, J., Rennick, D., Rajewsky, K., and Muller, W. (1993) Cell 75, 263-274).” left out
# For apoptosis analysis in vivo, mice were injected i.p. with PBS/vehicle, TNF (250 μg/kg) plus IFN-γ (250 units/g), NRG4 (100 μg/kg), or NRG4 plus TNF and IFN-γ. […] Apoptosis was detected by in situ oligo ligation (ISOL; EMD Millipore, Billerica, Mass.) staining for DNA fragmentation on sections of paraffin-embedded tissue, and by cleaved caspase-3 western blot on homogenates.
# 24 hours after injections, colons were harvested. Apoptosis assessed by Western blot analysis for cleaved caspase-3 on isolated epithelial cells determined that NRG4 blocked cytokine-induced apoptosis in vivo (FIG. 3A, B; 3.6-fold decrease, p=0.012).
# [7] = Dextran sodium sulfate-induced acute murine colitis; type: in vivo, mouse; settings: C57/BL6 mice, NRG4 100 μg/kg injected daily vs PBS
# Description: 6-8 week-old male C57/BL6 mice were given 3% DSS in drinking water for 7 days and injected daily with either PBS or NRG4 (100 μg/kg). Weight-loss was monitored over the course of the experiment (FIG. 4D(i)). On day 7, mice were sacrificed; colons were excised, rolled and fixed. H&E sections were scored by a pathologist blind to the experimental conditions using a scoring system adapted from that of Dielman et al. (Dieleman, L. A., et al., Chronic experimental colitis induced by dextran sulphate sodium (DSS) is characterized by Th1 and Th2 cytokines. Clinical and experimental immunology, 1998. 114(3): p. 385-91) (FIG. 4D(ii)).
# [8] = system: YAMC-B4 cells; assay: Cytokine (TNF plus IFN-γ)-induced apoptosis in cultured colon epithelial cells; type: cell-based, mouse; settings: NRG4 100 ng/ml, TNF 100 ng/ml plus IFN-γ 150 U/ml, 6 h, p<0.03
# Excerpt: (§6) Conditionally immortalized, non-transformed young adult mouse colon (YAMC) epithelial cells were provided by Dr. Robert Whitehead (Whitehead, R. H., VanEeden, P. E., Noble, M. D., Ataliotis, P., and Jat, P. S. (1993) Proc Natl Acad Sci USA 90, 587-591). These cells express low levels of endogenous ErbB4; YAMC-B4 cells expressing a human ErbB4 construct were generated as previously described (Frey, M. R., Edelblum, K. L., Mullane, M. T., Liang, D., and Polk, D. B. (2009) Gastroenterology 136, 217-226). […]
# Cultured mouse colonic epithelial cells expressing ErbB4 (YAMC-B4) cells were exposed to TNF (100 ng/ml) plus interferon (IFN)-γ (150 units/ml), with or without NRG4 (100 ng/ml). After 6 h, the cells were fixed and apoptosis was assessed by immunofluorescence analysis for cleaved caspase-3. When the YAMC-B4 cells were given 100 ng/ml NRG4, cells were protected from apoptosis induced by the 6 h exposure to the cytokine cocktail containing TNF (100 ng/ml) and IFN-γ (150 U/ml), as measured by immunofluorescence analysis for cleaved caspase-3 (FIG. 1B; 2.7-fold decrease with cytokines plus NRG4 vs. cytokines alone, p<0.03).
# [9] = system: ERK MAPK; assay: ERK MAPK phosphorylation in whole cell lysates by western blot; type: cell-based, mouse; settings: YAMC-B4 cells; NRG4 100 ng/ml, 10 min
# Excerpt: as §1, §2
# [10] = system: EGFR, ErbB2, ErbB3, and ErbB4; assay: ErbB receptor phosphorylation by western blot with phospho-specific antibodies; type: cell-based, mouse; settings: YAMC-B4 cells (human ErbB4 construct); 10 min; HRG-1β 100 ng/ml, NRG4, EGF 10 ng/ml
# Excerpt: as §6, §1
# Phosphorylation of EGFR, ErbB2, ErbB3, and ErbB4 was determined by western blot analysis of cell lysates using phospho-specific antibodies. […]
# [11] = system: YAMC-B4 cells; assay: Cell migration/restitution (modified scratch) assay; type: cell-based, mouse; settings: 8 h
# Description: Cells grown on fibronectin-coated plates were subjected to multiple circular wounds with a rotating silicone probe as previously described (Corredor, J., Yan, F., Shen, C. C., Tong, W., John, S. K., Wilson, G., Whitehead, R., and Polk, D. B. (2003) American journal of physiology. Cell physiology 284, C953-961). Cultures were photographed immediately and 8 h after wounding; % closure was determined by measuring wounds in Image.
# To test the potential effect of NRG4-ErbB4 signaling on cell motility, we used a modified scratch assay for restitution/migration (Corredor, J., Yan, F., Shen, C. C., Tong, W., John, S. K., Wilson, G., Whitehead, R., and Polk, D. B. (2003) American journal of physiology. Cell physiology 284, C953-961). Over an 8 h period, NRG4 had no effect on the rate at which YAMC-B4 cells moved into the denuded area of a culture plate (FIG. 4C), while in contrast EGF caused a 54% increase in migration over control.
# [12] = Experimental necrotizing enterocolitis (NEC) model
# [13] = system: YAMC-B4 cells; assay: EdU proliferation assay; type: cell-based, mouse; settings: 24 h stimulation
# Description: as §4, §5
molecule,measurement,setting,value
"Neuregulin-4 (protein, UniProt Q8WWG1 1-62, looked up, ectodomain, ErbB4-specific ligand) extracellular domain: MPTDHEEPCGPSHKSFCLNGGLCYVIPTIPSPFCRCVENYTGARCEEVFLPGSSIQTKSNLF",phosphorylation of Akt,[1],resulted in phosphorylation of Akt
same,"Akt phosphorylation in colon epithelial cells versus controls (western blot, immunofluorescence)",[2],increased Akt phosphorylation
same,Cronobacter sakazakii induced apoptosis,[3],attenuates
same,"number of Ki67-positive nuclei per crypt, PBS vs. NRG4-injected mice",[4],not altered
same,COX-2 expression,[5],not induced
same,"decrease in apoptosis, ISOL staining on fixed colon sections",[6]; p<0.0001,3.1 fold
same,"decrease in cytokine-induced apoptosis, cleaved caspase-3 western blot on isolated epithelial cells",[6]; p=0.012,3.6 fold
same,colon shortening,[7]; 3% DSS 7 days,reduces
same,histologically detectable colonic damage,"[7]; 3% DSS 7 days, blinded H&E score",reduces
same,weight loss,[7]; 3% DSS in drinking water 7 days,reduces
same,"decrease in apoptosis (cleaved caspase-3 immunofluorescence), cytokines plus NRG4 vs. cytokines alone",[8],2.7 fold
same,phosphorylation of ERK MAPK,[9],not ERK MAPK
same,"phosphorylation of EGFR, ErbB2, ErbB3, and ErbB4",[10],activated only ErbB4
same,"rate at which cells moved into the denuded area (migration), in words",[11],no effect
same,protection of the small intestine,[12]; formula feeding/hypoxia model of necrotizing enterocolitis,protective
same,survival of rat pups,"[12]; hypoxia/hypothermia model of NEC in rat pups, given by gavage with each feed",survive longer
same,"cellular uptake of EdU (proliferation) vs. control, in words",[13],not different from control
